From patent US9500651B2, “Method for identifying novel minor histocompatibility antigens” (UNIVERSITÉ DE MONTRÉAL, priority 2012, dated 2016)

Target: HLA-B*4403 (Homo sapiens, UniProt P01889, A223V/A65T/A93T/A95T/D201E/D98Y/E176V/E187L/E204Q/E69K/G107R/H137Y/K202T/L105A/L119I/N104T/N87E/Q56L/Q94N/R106L/R155S/R180L/S101N/S121R/S35A/S48T/T118I/V36M/W191S/Y140D/Y91S)
Experiment: MHC class I-associated peptides eluted from B-LCLs by mild acid treatment and identified by LC-MS/MS with personalized database
Assay type: cell-based
Details: EBV-transformed B-LCLs of 2 HLA-identical siblings
Protocol: (§1) Peripheral blood mononuclear cells (PBMCs) were isolated from blood samples of 2 HLA-identical siblings. Epstein-Barr virus (EBV)-transformed B lymphoblastoid cell lines (B-LCLs) were derived from PBMCs with Ficoll-Paque™ Plus (Amersham) as described (Tosato and Cohen, 2007). Established B-LCLs were maintained in RPMI 1640 medium supplemented with 10% fetal bovine serum, 25 mM of HEPES, 2 mM L-glutamine and penicillin-streptomycin (all from Invitrogen).
(§2) Three biological replicates of 4×10^8 exponentially growing B-LCLs were prepared from each subject. MHC class I-associated peptides were released by mild acid treatment, pretreated by desalting with an HLB cartridge, filtered with a 3000 Da cut-off column and separated by cation exchange chromatography (SCX) using an off-line 1100 series binary LC system (Agilent Technologies) as previously described (Fortier et al., 2008). Peptides were loaded at 8 uL/min on a homemade strong cation exchange (SCX) column (0.3 mm internal diameter×50 mm length) packed with SCX bulk material (Polysulfoethyl A™, PolyLC). Peptides were separated into five fractions using a linear gradient of 0-25% B in 25 min (solvent A: 5 mM ammonium formate, 15% acetonitrile, ACN, pH 3.0; solvent B: 2 M ammonium formate, 15% ACN, pH 3.0) and brought to dryness using a Speedvac.
(§3) MHC class I-associated peptide fractions were resuspended in 2% aqueous ACN (0.2% formic acid) and analyzed by LC-MS/MS using an Eksigent™ LC system coupled to a LTQ-Orbitrap™ mass spectrometer (Thermo Electron) (Fortier et al., 2008; de Verteuil et al., 2010; Caron et al., 2011). Peptides were separated in a custom C18 reversed phase column (150 μm i.d.×100 mm, Jupiter Proteo™ 4 μm, Phenomenex) at a flow rate of 600 nL/min using a linear gradient of 3-60% aqueous ACN (0.2% formic acid) in 69 mins. Full mass spectra were acquired with the Orbitrap™ analyzer operated at a resolving power of 60 000 (at m/z 400) and collision-activated dissociation tandem mass spectra were acquired in data-dependent mode with the linear ion trap analyzer. Mass calibration used an internal lock mass (protonated (Si(CH3)2O))6; m/z 445.120029) and mass accuracy of peptide measurements was within 5 ppm.
(§4) Mass spectra were analyzed using Xcalibur™ software and peak lists were generated using Mascot™ distiller version 2.1.1 (Matrix Science, http://www.matrixscience.com). Database searches were performed against a non-redundant human Uniprot database (containing 110,361 sequences, released on 28, Jul. 2011) (version 101 of the UniProt Gene Ontology Annotation available from the European Bioinformatics Institute (EBI), an academic research institute located on the Wellcome Trust Genome Campus in Hinxton near Cambridge (UK), part of the European Molecular Biology Laboratory; http://www.ebi.ac.uk/Informationt; Magrane et al., Database Vol. 2011, Article ID bar009; The UniProt Consortium, Nucleic Acids Res. 2011 January; 39(Database issue): D214-D219) and databases specific for each individual (see “in silico translated transcriptome” section) using Mascot (version 2.3, Matrix Science). A Mascot search against a concatenated target/decoy database consisting of combined forward and reverse versions of the Ensembl human reference genome database and of each subject-specific database. Non-redundant peptide sequences with a cutoff score threshold above 15 were selected. The tolerances for precursor and fragment mass values were set to 0.02 and 0.05 Dalton, respectively. Searches were performed without enzyme specificity and a variable modification for oxidation (Met) and deamidation (Asn, Gln). Raw data files were converted to peptide maps comprising m/z values, charge state, retention time and intensity for all detected ions above a threshold of 8000 counts using in-house software (Proteoprofile) (Fortier et al., 2008; de Verteuil et al., 2010; Caron et al., 2011). […]

Presentation at the cell surface by MHC class I allele, presented at the cell surface:
QELDGVFQKL (listed as Homo sapiens) [MiHA peptide from ZWINT, rs2241666, glycine allele]
QELDRVFQKL (listed as Homo sapiens) [MiHA peptide from ZWINT, rs2241666, arginine allele]

Target: HLA-B*0801 (Homo sapiens, UniProt P01889, A93T/A95T/D138N/E176V/E187T/K202T/Q94N/R180D/S35A/V36M/Y33D/Y91F)
Experiment: as above
Assay type: cell-based
Details: EBV-transformed B-LCLs of 2 HLA-identical siblings
Protocol: as §1, §2, §3, §4

Presentation at the cell surface by MHC class I allele, presented at the cell surface:
ELQEKFLSL (listed as Homo sapiens) [MiHA peptide from CENPF, rs3795517, leucine allele]
SLFFRKVPF (listed as Homo sapiens) [MiHA peptide from MTCH2, rs1064608, proline allele]
ELQEKFSSL (listed as Homo sapiens) [MiHA peptide from CENPF, rs3795517, serine allele]
SLFFRKVAF (listed as Homo sapiens) [MiHA peptide from MTCH2, rs1064608, alanine allele]

Target: T1, HLA-A*0301 (Homo sapiens, UniProt P04439)
T1 construct: endogenous in cells; host or cells: EBV-transformed B lymphoblastoid cell lines (B-LCLs) from PBMCs of 2 HLA-identical siblings
Experiment: as above
Assay type: cell-based
Details: EBV-transformed B-LCLs of 2 HLA-identical siblings
Protocol: as §1, §2, §3, §4

Presentation at the cell surface by MHC class I allele, presented at the cell surface:
SVLKPGNSK (listed as Homo sapiens) [MiHA peptide from ELF1, rs1056820, serine allele]
AMYDKGPFWSK (listed as Homo sapiens) [MiHA peptide from NQO1, rs1131341, tryptophan allele]
RVSLPTSPG (listed as Homo sapiens) [MiHA peptide from KIAA0226L, rs1408184, glycine allele]
VMGNPGTFN (listed as Homo sapiens) [MiHA peptide from RMDN1, rs6980476, asparagine allele]
RVSLPTSPR (listed as Homo sapiens) [MiHA peptide from KIAA0226L, rs1408184, arginine allele]
VMGNPGTFK (listed as Homo sapiens) [MiHA peptide from RMDN1, rs6980476, lysine allele]
AMYDKGPFRSK (listed as Homo sapiens) [MiHA peptide from NQO1, rs1131341, arginine allele]
TVLKPGNSK (listed as Homo sapiens) [MiHA peptide from ELF1, rs1056820, threonine allele]
